Data on one substance can be found in publication PMC3913039.

The target in this assay is recombinant 3x-FLAG-tagged human Sec61α, wild type (human) (UniProt P61619). Put plainly: co-IP; Sf21 microsomes with FLAG-Sec61α and Sec61γ solubilised with 1% Deoxy BigChap, anti-FLAG immunoprecipitation, immunoblot beside canine microsomes. On the technique in general: A western blot detects proteins with antibodies after separation by electrophoresis.
Chain of UniProt P61619 (P61619 whole entry): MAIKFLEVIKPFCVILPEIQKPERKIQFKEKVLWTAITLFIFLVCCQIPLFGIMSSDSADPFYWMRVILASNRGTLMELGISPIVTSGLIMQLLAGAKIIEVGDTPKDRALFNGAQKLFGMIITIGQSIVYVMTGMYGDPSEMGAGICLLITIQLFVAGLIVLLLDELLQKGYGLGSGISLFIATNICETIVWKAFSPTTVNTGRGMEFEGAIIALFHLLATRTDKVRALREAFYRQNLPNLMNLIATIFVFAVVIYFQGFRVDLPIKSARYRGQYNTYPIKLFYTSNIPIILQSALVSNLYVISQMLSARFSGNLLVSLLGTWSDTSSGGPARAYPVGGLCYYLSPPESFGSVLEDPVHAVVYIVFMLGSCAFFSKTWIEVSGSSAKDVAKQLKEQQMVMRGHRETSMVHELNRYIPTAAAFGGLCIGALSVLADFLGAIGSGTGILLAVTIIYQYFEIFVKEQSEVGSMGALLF

Regarding “recombinant untagged human Sec61γ (from UniProt P60059 1-68) (natural protein; other documents disagree on this pair)”, the stoichiometry N was determined as 1.

Broadly, the stoichiometry N is the number of molecules, sites or subunits per partner or assembly.
